Measured values taken from article PMC9241269.

Molecular target: SYT11 (UniProt Q9BT88)
Assay: co-IP with anti-Myc, blot for GFP-SYT11
Details: reference: Myc-JNK1 wild type

Substance | binding against the reference (sites T183) | binding against the reference (sites Y185)
JNK1 (from UniProt P45983) Myc-JNK1 T183A | lost | –
JNK1 (from UniProt P45983) Myc-JNK1 Y185F | – | lost
